Assay results published in article PMC12487888 (2025).

Molecular target: EutQ (residues 1 to 229) (S. Typhimurium LT2, UniProt Q9ZFV5 1-229)
Assay: ITC

Sequence of EutQ (residues 1 to 229) (Q9ZFV5 whole entry, the tested form may be a part): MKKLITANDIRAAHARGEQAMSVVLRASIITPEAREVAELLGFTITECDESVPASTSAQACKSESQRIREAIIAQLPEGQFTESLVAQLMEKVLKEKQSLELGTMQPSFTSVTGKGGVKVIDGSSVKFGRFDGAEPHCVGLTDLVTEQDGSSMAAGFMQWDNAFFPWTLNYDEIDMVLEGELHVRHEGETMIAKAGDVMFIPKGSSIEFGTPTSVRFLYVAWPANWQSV

B1: EutE^1–20 encapsulation peptide (peptide)
peptide: MNQQDIEQVVKAVLLKMKDS
With B1 the Kd was 14.1 µM.
